Source: the domain aggregation screens of Martell et al. (2025)

Experiment: soluble fraction after stress (log2 fold change); higher = more stays soluble; pooled small domains, quantitative proteomics
Details: stress: 75 degC
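Note: 20 min heating vs room temperature control held 20 min.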

Sequence: HMSEKELTDLIERIKERRLKLEMSYQDLSDATGISKSTLQRYETGYIKKVPINQIEILAKALHTTPSYLMG
- soluble fraction (log2): -0.411

Sequence: HMSEKIDINNSNELELKQLPLTNEQIKSLIEFRRLHGEIQNIYELKNIDFFNIEKVHELKAHIEIKKII
- soluble fraction (log2): -1.03

Sequence: HMSELADDPVYTALEKAADKAGLQLTVRILNDLADAVLKRGKKKLTAAQAGKVIARAESELAKSRID
- soluble fraction (log2): 0.00292

Sequence: HMSELDASYLGQRVRYVSGFTETDPSEGLVEFRGSNWRARAEHPPLDHSGHWVIVKVESNTLWVEEKSN
- soluble fraction (log2): -1.57

Sequence: HMSENEIDELRRRFAREAMALMERKGEEVSRTRLAAELSVARARIDAVFPEESDLLEAVTAEWFA
- soluble fraction (log2): -0.477

Sequence: HMSENEVQAKVKEIVDRYAGDKSALIAILQDVQDEYRYLPKEALVSIQQQMNIPLSRVYEVATFYDAFS
- soluble fraction (log2): -0.556

Sequence: HMSEPIYTQLKEILTQKIVNGEFPPGARLPSEYELTELYHISRSTVRLALKELEASGMIVRRRGKGTFVSS
- soluble fraction (log2): -2.39

Sequence: HMSEPRYRQLATILAQEIRSNHSAGDQLPSEQALAKRFEVNRHTVRRAVDELVAAGMVTRHQGWGTQVV
- soluble fraction (log2): -0.158

Sequence: HMSEQGVITAKFASIVGNQNIQLVMFPDSVYLKGQVSSEEEKKRAETVASSLIQDRKIVNLIEFE
- soluble fraction (log2): -0.075

Sequence: HMSEQIALQFAKAKQHHTGIALKGIEALELRYKGYTGKEIAALYHTSPKSVFSWISRAKQKLRQN
- soluble fraction (log2): -0.272

Sequence: HMSEQLHALIDRLDDIPDDELKKNWPGTLRDLVDVISAELHRQGIEPAQAGMLARKVAAAQAGYMG
- soluble fraction (log2): -0.486

Sequence: HMSEQLKQIAERIKELRNIAGLGEEELAAKLDIPVDTYREYESGNVDIPVSFLYKISGMFNVELTAIL
- soluble fraction (log2): -1.1

Sequence: HMSEQLVGTVGHITVGTARTASPAEAKFLDAFEQPHYLLVEPIEPKDIFQQGDKVVLVKKQHHSWLATRYI
- soluble fraction (log2): -1.2

Sequence: HMSEQTLEDVRRLIEHLPESQKEVVKMRYYQDLSFKEIADLKGISINTALGRMHYAINNMRKMAKEYGL
- soluble fraction (log2): -1.94

Sequence: HMSEQVQLQAQVEDDLIGKRLDQVVAQLFPDYSRSRLQGWIKDGSLTVDGESRRPRDKMMGGEVVRVEATL
- soluble fraction (log2): 0.107

Sequence: HMSEQVTMIDVEGKTETEAKKALEDLGLKVEITYESADAAAGTVIGQDVKAGSTVSEGSRVTLTVSGQ
- soluble fraction (log2): 0.528

Sequence: HMSERQTGTVKWFNNAKGFGFITMADRPDDIFVHFRAIQGDGYRSLNEGEEVEFSLVEGPKGLQAEEVTK
- soluble fraction (log2): -0.0682

Sequence: HMSESAGKAFDLLFYLAKAGETVSLARLSRETGMNKATALRYLNVLESKGVVERSKLGWTLGLSLFELGSK
- soluble fraction (log2): -2.96

Sequence: HMSESIFTLYGDEKFEKIRYYLKERGFITLDALARFDFDELLFVPGVSELLISEAKQLFSRYDTSSLAAKE
- soluble fraction (log2): -0.584

Sequence: HMSETAEFIIQVNGKVRAKLQLPTDISKEEIQKLALADENVQKYLNGEPRKIIFPPNTRLVSIV
- soluble fraction (log2): -0.315

Sequence: HMSETEEWTVEGGQAGDRIDRHVAAMLGDDVSRSQVQQWIRAGRVTVNGRAVKPSDTVEEGDRVAVDLPEP
- soluble fraction (log2): -0.189

Sequence: HMSETVYQYVARQLRDMLGSGEIPVGQQLPTYRELAKRFQVSLSVIQRAMRQLKAEAVVSIAHGQGVKAVR
- soluble fraction (log2): -1.16

Sequence: HMSEVPVLVAKTDIKELELIDDRKVTLINVPQKFKMPGSFNSPEEVYNTIAAVPIKEGEQITKPRVTWP
- soluble fraction (log2): 0.0951

Sequence: HMSEVSEILTRARFFAGVKTDAELSTLLKIPYGTLIGWKTRKNIPESRIAQMALILGIRRDTLIPA
- soluble fraction (log2): -1.86

Sequence: HMSEYIFGKNVVKEAFNNPSRIEEIYVLDKNMEFVSLAKKYHIKYTVITSSEMNKMVSGNHQGVVALVK
- soluble fraction (log2): -2.1

Sequence: HMSFDENEALRKALDVFWEKGYDGTSLSDLTEAMGINKPSLYATFGNKDQLFLKAIEMYENR
- soluble fraction (log2): -1.4

Sequence: HMSFDTFKKVFSNLVEKSGYSDAEIARRLGVNRSTISRWKSGEQSPPLPKVKEIANFFGVSPMVFVD
- soluble fraction (log2): -0.41

Sequence: HMSFFNGNQMKILRKKLQLNQEEMGEKLGIKKSYVSQLENNRKEITEEIDQILQELEQEYQDKM
- soluble fraction (log2): -0.642

Sequence: HMSFGESLKKLSIALNSIRKLATTDAGKKDPKVADLLGQIRDTFNSYRTHLRKNYPDLYSGIKNQL
- soluble fraction (log2): -0.977

Sequence: HMSFGKKLRSLRQEKKLSQVELSKKLNVTSQALSQYELGKRIPDAEMIIRIADFFDVSVDYLLDRT
- soluble fraction (log2): -1.69

Sequence: HMSFGWESLENKEGVADTDLHPSGWVRIEDSRIFVVSEGDFINKGSKVTVLTVDGNRVVVRELI
- soluble fraction (log2): -2.1

Sequence: HMSFNISPTKKLILELIMNGTAAVEAIAVKAGISKGMAYNHLRELRSMGYITDEGGYKITDSGRLAV
- soluble fraction (log2): -2.39

Sequence: HMSFNNHYEILQVQPSADREVIEAAAKALLKKHHPDLGGRNTITSHIVQAKKVLTDTSQRADFDARLRERL
- soluble fraction (log2): -0.135

Sequence: HMSFNSQENKSVLWQFLLENNFFIGLSDKKFNKVKDIFEKNIQSISIVNDSISNKNKILIQKMMEELELL
- soluble fraction (log2): -3.38

Sequence: HMSFPDTYFKGNKVIGLSYNDLKKFLNNAGYSKFDEEVEEWGEKRVSIEDDMVDFYLEDDKVVSI
- soluble fraction (log2): -0.361

Sequence: HMSFPFLMPNLEGLQLDQVRVILEENGLEIGQENYQPDSKFGPGTIINHQPSVDTVVQTGQKVNLQISGTD
- soluble fraction (log2): 0.126

Sequence: HMSFSSLSNDILSEIQKDNNITYDELSEKLQKDRATIYRNMKKLVENGLLKRVGGRKSGHWEIIE
- soluble fraction (log2): -0.102

Sequence: HMSFVDFYGLFTTELQRLAELPVTADELIKNTGLHKSQLTDWLKRAEEDGVVKKLNRPVRYQVEKK
- soluble fraction (log2): -1.66

Sequence: HMSGAQIQQLLESRAPQPGMNPDMIVRRKTYMNNVFNALKGALLRVANGSSPEEVKTEVDAAIQVDPDKL
- soluble fraction (log2): 0.353

Sequence: HMSGEVLTAVVPETASGERLDKVLPQIFPPYSRSQLQTWLKEGRVTLDREIPAARLAVIGGETLRLEVPSL
- soluble fraction (log2): -0.112

Sequence: HMSGFFVYPNPAKSNIIHFPNKKSFYIYDTSGRLLIEGKGKDFIDVSTLDRGVYLLKTFENDIVKIII
- soluble fraction (log2): -1.1

Sequence: HMSGGIVRLAVKPWGEVFVDGASRGITPPLKQLTLDAGVHRIEIRNPAGPSWTKDVDVVAGQPTTVSHRF
- soluble fraction (log2): -0.494

Sequence: HMSGITDIITDGKATSRPVVVTDGGHIRVLSPYTSFAIYTLGGMSLPTESRLEPGIYIVVVDSNAVKVAV
- soluble fraction (log2): -1.59

Sequence: HMSGLGELTPRELEVLELMAQGLSNSQIAGRLFLSGAAVAKHVSSIFSKLGFEPGDENRRVRAILAFLNR
- soluble fraction (log2): -1.41

Sequence: HMSGLLTTSKLAQKHKMKTEPMLEKLTAAGYLEWRDDKHSLTEQGKKAGGQFKTGRFGAYFLWPEDLV
- soluble fraction (log2): -0.116

Sequence: HMSGPDGLTEREIEVLRLLASGLSNRAIGERLYISTNTAANHVRSILLKTGAANRTQAAMYAADHEML
- soluble fraction (log2): -1.66

Sequence: HMSGPFTELTPREREILSHLAEGQSNKVIARHLQISDGTVKLHVKAILRKLEVHSRVEAAVMAVEHGV
- soluble fraction (log2): -2.18

Sequence: HMSGPMVPNVVGLSEEMARALLSDYSITIKHAHDGVIPKDRVASQLPLATTHAKVGSSVVLTIS
- soluble fraction (log2): -0.557

Sequence: HMSGQLTEEQVKQIVTTAVKNSSGSTLTAAEVSRIVSTAVANNLTADQVKTVVNNALAGITTDISTLKA
- soluble fraction (log2): 0.124

Sequence: HMSGSFDVTLDYLNSLRNLYPAIDVEQEFRKMYAWLDSNPKNRKTERGIKRFITGWLGRAQDKAP
- soluble fraction (log2): -1.31

Sequence: HMSGSLLQTRQRLQALTDLGHYKGDLAAAWGPEAIEALKRAQAALGITVDGKWGPETEDAIQVALQAQT
- soluble fraction (log2): -0.00363

Sequence: HMSGSPREQAESEYRKAIAAVNQGRVSEATESLRAALRLDAFQVAARQLLVKLLLEAKNQDEAIQVLR
- soluble fraction (log2): -0.986

Sequence: HMSGTMYATAEVNVRSTYSSDGTIYGTLSKGTAVEITGTTDNGWVRVKYNGTTAYVYADYLSWKAP
- soluble fraction (log2): -2.41

Sequence: HMSGYAIVNNQPGRTLNLRNSPSQSNNIIGQIPSGTRLQLISRGETWSEVIFQTTRGFVMSSFLRFET
- soluble fraction (log2): -2.38

Sequence: HMSHGNAALTPRQRLRLARLVVDDQWSVSAAAEFFRVSYPTAAKWARRYVELGPAGMADRSS
- soluble fraction (log2): -1.62
